Data on three compounds can be found in paper PMC10730914, “Multiple independent losses of the biosynthetic pathway for two tropane alkaloids in the Solanaceae family” (Nature Communications, 2023).

Holding throughout (conditions): 200 µM NADPH, 0.1 M potassium phosphate pH 6.4, 30 °C
In data set [1] the test system is CN1[C@@H]2CC[C@H]1CC(=O)C2. Briefly: purified protein. The data set is classed as biochemical, Solanum tuberosum.
Data set [2] deals with T1, McTRI.
T1 construct: gene TRI
Description: NADPH consumption at […] nm, Michaelis-Menten fit. The data set is classed as biochemical, Mandragora caulescens.

In data set [3] the test system is T2, LcTRI.
T2 construct: gene TRI
Description: NADPH consumption at […] nm, Michaelis-Menten fit. The data set is classed as biochemical, Lycium chinense.

Data set [4] has as its system T3, BaTRI.
T3 construct: gene TRI
Description: NADPH consumption at […] nm, Michaelis-Menten fit. The data set is classed as biochemical, Brugmansia arborea.

With “StTRI (Solanum tuberosum; A101V/A193G/L159V/V147L)”, the Km in data set [1] is 110 ± 10 µM.

Consider `CN1[C@@H]2CC[C@H]1CC(=O)C2` [compound 5, tropinone], for which the Km in data set [2] amounted to 90 ± 10 µM; in data set [3], 2910 ± 140 µM; in data set [4], 310 ± 30 µM.

Consider StTRI (Solanum tuberosum; A101V/L159V), for which, in data set [1], the Km is 280 ± 70 µM and the kcat worked out at 3.31 ± 0.20 s⁻¹.
